Test results published in patent publication US20190240316A1 (published 2019).

Assays:
RPM = assay: ELISA; printed as ng/uL
FFL_001 [1] = assay: ELISA; printed as ng/uL
FFL_001 [2] = assay: SPR

Row | Binder | EC50 (RPM) [mg/L] | EC50 (FFL_001 [1]) [mg/L] | Kd (FFL_001 [2]) [nM]
1 | 3J20 (antibody, V domains shown) VH: EVQLVESGGGLVQPGGSLRLSCAASGFTFSSFTMNWVRQAPGKGLQWVSTISGSGGLTYYADSVKGRFTISRDNSKNTLSLQMNSLRAEDTAVYYCARDLEFTVTSYGGYYFEYWGQGTLVTVSS VL: not shown | 12.7 | 11.1 | 
2 | 3J20 (Fab, V domains shown) VH: EVQLVESGGGLVQPGGSLRLSCAASGFTFSSFTMNWVRQAPGKGLQWVSTISGSGGLTYYADSVKGRFTISRDNSKNTLSLQMNSLRAEDTAVYYCARDLEFTVTSYGGYYFEYWGQGTLVTVSS VL: not shown |  |  | 1.05
3 | Motavizumab (antibody, V domains shown) VH: QVTLRESGPALVKPTQTLTLTCTFSGFSLSTAGMSVGWIRQPPGKALEWLADIWWDDKKHYNPSLKDRLTISKDTSKNQVVLKVTNMDPADTATYYCARDMIFNFYFDVWGQGTTVTVSS VL: DIQMTQSPSTLSASVGDRVTITCSASSRVGYMHWYQQKPGKAPKLLIYDTSKLASGVPSRFSGSGSGTEFTLTISSLQPDDFATYYCFQGSGYPFTFGGGTKVEIK | 16.7 | 10.4 | 
4 | Palivizumab (antibody, V domains shown) VH: QVTLRESGPALVKPTQTLTLTCTFSGFSLSTSGMSVGWIRQPPGKALEWLADIWWDDKKDYNPSLKSRLTISKDTSKNQVVLKVTNMDPADTATYYCARSMITNWYFDVWGAGTTVTVSS VL: DIQMTQSPSTLSASVGDRVTITCKCQLSVGYMHWYQQKPGKAPKLLIYDTSKLASGVPSRFSGSGSGTEFTLTISSLQPDDFATYYCFQGSGYPFTFGGGTKLEIK | 26.1 | 49 | 
5 | 13A8 (antibody, V domains shown) VH: QVQLVESGGGVVQPGKSLRLSCAASGYIFSSYDMHWVRQAPGKGLEWVAVISFDGTTQHYADSVRGRFTVSRDNSQNTVFLQMNSLRPEDTAVYYCVKEYVIVSTFFDYWGQGTLVTVSS VL: DIVMTQSPSSLSASVGDRVTITCRASQGIRNALGWYQHKPGKAPKVLIYAASRLQSGVPSRFSGSGSGTDFTLTISSLQPEDFATYYCLQDFNYPWTFGHGTKVEIK | 14.8 | 17.9 | 
6 | 13A8 (Fab, V domains shown) VH: QVQLVESGGGVVQPGKSLRLSCAASGYIFSSYDMHWVRQAPGKGLEWVAVISFDGTTQHYADSVRGRFTVSRDNSQNTVFLQMNSLRPEDTAVYYCVKEYVIVSTFFDYWGQGTLVTVSS VL: DIVMTQSPSSLSASVGDRVTITCRASQGIRNALGWYQHKPGKAPKVLIYAASRLQSGVPSRFSGSGSGTDFTLTISSLQPEDFATYYCLQDFNYPWTFGHGTKVEIK |  |  | 0.2
7 | 14N4 (antibody, V domains shown) VH: QVQLVESGGGLIQPGGSLRLSCAVSGFTVSSKYMTWVRQAPGKGLEWVSVIYGGGSTYYADSVVGRFTISRDNSKNTLYLQMNSLRAEDTAVYYCASRLGVRATTGDLDYWGQGTLVTVSS VL: QIVMTQSPSTLSASVGDRVTITCRASQSISSWLAWYQQKPGKAPKLLIYDASSLESGVPSRFSGSGSGTEFTLTISSLQPDDFATYYCQQYNTYSWWTFGQGTKVEIK | 7.4 | 19.3 | 
8 | 14N4 (Fab, V domains shown) VH: QVQLVESGGGLIQPGGSLRLSCAVSGFTVSSKYMTWVRQAPGKGLEWVSVIYGGGSTYYADSVVGRFTISRDNSKNTLYLQMNSLRAEDTAVYYCASRLGVRATTGDLDYWGQGTLVTVSS VL: QIVMTQSPSTLSASVGDRVTITCRASQSISSWLAWYQQKPGKAPKLLIYDASSLESGVPSRFSGSGSGTEFTLTISSLQPDDFATYYCQQYNTYSWWTFGQGTKVEIK |  |  | 1.37
